US20080124280A1

What was measured:
purified αVβ3 integrin [1] = target: purified αVβ3 integrin (UniProt P06756); assay: antibody at 1 µg/ml added to 2 µg purified αVβ3 before [125I]-T4; native gel, band intensity
purified αVβ3 integrin [2] = target: purified αVβ3 integrin (UniProt P06756); assay: antibody at 2 µg/ml added to 2 µg purified αVβ3 before [125I]-T4; native gel, band intensity
purified αVβ3 integrin [3] = target: purified αVβ3 integrin (UniProt P06756); assay: antibody at 4 µg/ml added to 2 µg purified αVβ3 before [125I]-T4; native gel, band intensity
purified αVβ3 integrin [4] = target: purified αVβ3 integrin (UniProt P06756); assay: antibody at 8 µg/ml added to 2 µg purified αVβ3 before [125I]-T4; native gel, band intensity
purified αVβ3 integrin [5] = target: purified αVβ3 integrin (UniProt P06756); assay: antibody at 8 µg/ml added to purified αVβ3 30 min before [125I]-T4; native gel; the legend's value differs from the 59% of paragraph 377

Sequence of purified αVβ3 integrin (P06756 31-1048 limits assumed, form in doubt, chain 1 of 2): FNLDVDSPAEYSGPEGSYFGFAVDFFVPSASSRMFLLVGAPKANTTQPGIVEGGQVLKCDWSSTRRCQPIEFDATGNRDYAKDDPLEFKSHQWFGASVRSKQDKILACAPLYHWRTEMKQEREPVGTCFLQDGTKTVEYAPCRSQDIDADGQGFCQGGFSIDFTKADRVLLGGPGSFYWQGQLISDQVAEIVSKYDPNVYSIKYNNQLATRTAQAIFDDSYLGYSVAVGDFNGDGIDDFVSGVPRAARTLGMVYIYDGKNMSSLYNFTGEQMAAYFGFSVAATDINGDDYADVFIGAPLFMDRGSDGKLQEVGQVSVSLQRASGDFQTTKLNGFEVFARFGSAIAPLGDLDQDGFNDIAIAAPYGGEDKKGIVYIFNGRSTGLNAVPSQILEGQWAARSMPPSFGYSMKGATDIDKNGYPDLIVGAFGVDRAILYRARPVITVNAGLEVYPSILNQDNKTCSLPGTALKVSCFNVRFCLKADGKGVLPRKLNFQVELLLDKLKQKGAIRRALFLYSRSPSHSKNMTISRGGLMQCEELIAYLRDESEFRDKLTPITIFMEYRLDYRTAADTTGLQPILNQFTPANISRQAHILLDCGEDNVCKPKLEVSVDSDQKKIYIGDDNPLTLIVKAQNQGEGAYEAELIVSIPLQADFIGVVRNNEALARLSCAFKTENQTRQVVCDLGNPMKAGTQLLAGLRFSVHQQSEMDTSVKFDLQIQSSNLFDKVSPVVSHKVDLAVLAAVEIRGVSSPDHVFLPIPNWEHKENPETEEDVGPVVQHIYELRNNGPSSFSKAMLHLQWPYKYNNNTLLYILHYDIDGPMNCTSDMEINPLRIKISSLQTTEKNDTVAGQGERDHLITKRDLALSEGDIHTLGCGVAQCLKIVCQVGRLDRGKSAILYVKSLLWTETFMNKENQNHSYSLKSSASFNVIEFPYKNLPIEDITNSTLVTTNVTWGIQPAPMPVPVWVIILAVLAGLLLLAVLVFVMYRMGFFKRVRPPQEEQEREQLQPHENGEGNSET
Sequence of purified αVβ3 integrin (P05106 27-788 limits assumed, form in doubt, chain 2 of 2, further chain): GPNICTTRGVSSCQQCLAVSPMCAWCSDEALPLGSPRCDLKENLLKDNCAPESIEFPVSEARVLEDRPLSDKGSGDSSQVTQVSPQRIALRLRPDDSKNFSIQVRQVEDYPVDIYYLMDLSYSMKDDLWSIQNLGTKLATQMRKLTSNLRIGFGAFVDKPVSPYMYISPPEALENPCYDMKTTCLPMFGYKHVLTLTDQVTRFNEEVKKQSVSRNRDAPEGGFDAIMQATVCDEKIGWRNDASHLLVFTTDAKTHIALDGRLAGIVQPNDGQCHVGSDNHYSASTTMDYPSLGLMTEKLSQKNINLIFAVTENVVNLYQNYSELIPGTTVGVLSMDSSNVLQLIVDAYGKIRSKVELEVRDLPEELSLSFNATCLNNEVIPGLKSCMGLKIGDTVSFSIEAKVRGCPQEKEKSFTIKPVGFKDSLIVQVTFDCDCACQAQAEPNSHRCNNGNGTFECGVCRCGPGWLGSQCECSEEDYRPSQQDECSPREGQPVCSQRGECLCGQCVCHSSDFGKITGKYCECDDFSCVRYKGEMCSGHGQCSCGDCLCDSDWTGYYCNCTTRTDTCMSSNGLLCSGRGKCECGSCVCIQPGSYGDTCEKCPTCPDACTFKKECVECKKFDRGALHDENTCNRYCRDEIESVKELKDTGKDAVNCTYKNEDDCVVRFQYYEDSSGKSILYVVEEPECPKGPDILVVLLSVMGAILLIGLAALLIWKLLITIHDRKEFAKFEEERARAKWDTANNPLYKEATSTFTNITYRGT

## monoclonal antibody LM609 to αVβ3
Purified αVβ3 integrin [1]
  percent reduction of integrin-[125I]T4 complex formation: 52%
Purified αVβ3 integrin [2]
  percent decrease of band intensity (integrin-[125I]T4 complex): 64%
Purified αVβ3 integrin [3]
  percent decrease of band intensity (integrin-[125I]T4 complex): 63%
Purified αVβ3 integrin [4]
  percent decrease of band intensity (integrin-[125I]T4 complex): 81%

## monoclonal antibody SC7312 to αVβ3
Purified αVβ3 integrin [1]
  percent reduction of T4 binding to αVβ3: 20%
Purified αVβ3 integrin [2]
  percent reduction of T4 binding to αVβ3: 46%
Purified αVβ3 integrin [3]
  percent reduction of T4 binding to αVβ3: 47%
Purified αVβ3 integrin [4]
  percent reduction of T4 binding to αVβ3: 59%
Purified αVβ3 integrin [5]
  percent reduction of T4 binding to αVβ3: 58%
